Tested on: HBV-DNA in 2.2.15 cells
Assay: HBV-DNA Southern blot in 2.2.15 cells
Format: cell-based, hepatitis B virus
Description: Southern blot: Extraction of HBV-DNA from 2.2.15 cells: add drugs and incubate 2.2.15 cells for 8 days, remove medium and harvest cells, lyse cells with lysis solutions, extracts with equal volume phenol:chloroform:isopentanol twice, add absolute ethanol to precipitate nucleic acid, vacuum dry, re-dissolve in 20 μl TE buffer, add DNA sample buffer, put samples into agarose gel for electrophoresis. After electrophoresis, denature, neutralize and transfer to membrane. Oven dry, hybridize, expose with dot blotting the same time. Scan developed film with scanner, analyze relative density with gel-pro software, and calculate suppression rate and IC50.

[1] = Arginase 2.5 μg/ml (unit as headed), batch 1, day 8
[2] = Arginase 2.5 μg/ml (unit as headed), batch 2, day 8
[3] = Arginase 5 μg/ml (unit as headed), batch 1, day 8
[4] = Arginase 5 μg/ml (unit as headed), batch 2, day 8
[5] = Arginase 10 μg/ml (unit as headed), batch 1, day 8
[6] = Arginase 10 μg/ml (unit as headed), batch 2, day 8
[7] = Arginase 20 μg/ml (unit as headed), batch 1, day 8
[8] = Arginase 20 μg/ml (unit as headed), batch 2, day 8

B1: Arginase: Pegylated recombinant human arginase (BCT-100); human arginase I with N-terminal six-histidine tag, SEQ ID NO: 3 (protein, listed as Homo sapiens)
chain: MHHHHHHMSAKSRTIGIIGAPFSKGQPRGGVEEGPTVLRKAGLLEKLKEQECDVKDYGDLPFADIPNDSPFQIVKNPRSVGKASEQLAGKVAQVKKNGRISLVLGGDHSLAIGSISGHARVHPDLGVIWVDAHTDINTPLTTTSGNLHGQPVSFLLKELKGKIPDVPGFSWVTPCISAKDIVYIGLRDVDPGEHYILKTLGIKYFSMTEVDRLGIGKVMEETLSYLLGRKKRPIHLSFDVDGLDPSFTPATGTPVVGGLTYREGLYITEEIYKTGLLSGLDIMEVNPSLGKTPEEVTRTVNTAVAITLACFGLAREGNHKPIDYLNPPK
modifications: PEGylated
Effect on HBV-DNA in cells (result in words) (2.2.15 cells, 8 days): lowers | HBV-DNA Southern Blot In Lane % Suppression [1]: 31.6525% | HBV-DNA Southern Blot Sum % Suppression [1]: 26.4131% | HBV-DNA Southern Blot Sum (IOD) (Arginase 2.5 μg/ml (unit as headed), batch 1, day 8, control 29421): 21650 IOD | HBV-DNA Southern Blot In Lane (IOD) (Arginase 2.5 μg/ml (unit as headed), batch 1, day 8, control 42082): 28762 IOD | HBV-DNA Southern Blot In Lane % Suppression [2]: 38.6255% | HBV-DNA Southern Blot Sum % Suppression [2]: 0% | HBV-DNA Southern Blot Sum (IOD) (Arginase 2.5 μg/ml (unit as headed), batch 2, day 8, control 66143): 68619 IOD | HBV-DNA Southern Blot In Lane (IOD) (Arginase 2.5 μg/ml (unit as headed), batch 2, day 8, control 76188): 88350 IOD | HBV-DNA Southern Blot In Lane % Suppression [3]: 31.5717% | HBV-DNA Southern Blot Sum % Suppression [3]: 31.6679% | HBV-DNA Southern Blot Sum (IOD) (Arginase 5 μg/ml (unit as headed), batch 1, day 8, control 29421): 20104 IOD | HBV-DNA Southern Blot In Lane (IOD) (Arginase 5 μg/ml (unit as headed), batch 1, day 8, control 42082): 28796 IOD | HBV-DNA Southern Blot In Lane % Suppression [4]: 19.0752% | HBV-DNA Southern Blot Sum % Suppression [4]: 30.0259% | HBV-DNA Southern Blot Sum (IOD) (Arginase 5 μg/ml (unit as headed), batch 2, day 8, control 66143): 46283 IOD | HBV-DNA Southern Blot In Lane (IOD) (Arginase 5 μg/ml (unit as headed), batch 2, day 8, control 76188): 61655 IOD | HBV-DNA Southern Blot In Lane % Suppression [5]: 22.7722% | HBV-DNA Southern Blot Sum % Suppression [5]: 17.6303% | HBV-DNA Southern Blot Sum (IOD) (Arginase 10 μg/ml (unit as headed), batch 1, day 8, control 29421): 24234 IOD | HBV-DNA Southern Blot In Lane (IOD) (Arginase 10 μg/ml (unit as headed), batch 1, day 8, control 42082): 32499 IOD | HBV-DNA Southern Blot In Lane % Suppression [6]: 13.0559% | HBV-DNA Southern Blot Sum % Suppression [6]: 29.1172% | HBV-DNA Southern Blot Sum (IOD) (Arginase 10 μg/ml (unit as headed), batch 2, day 8, control 66143): 46884 IOD | HBV-DNA Southern Blot In Lane (IOD) (Arginase 10 μg/ml (unit as headed), batch 2, day 8, control 76188): 66241 IOD | HBV-DNA Southern Blot In Lane % Suppression [7]: 25.2982% | HBV-DNA Southern Blot Sum % Suppression [7]: 14.9893% | HBV-DNA Southern Blot Sum (IOD) (Arginase 20 μg/ml (unit as headed), batch 1, day 8, control 29421): 25011 IOD | HBV-DNA Southern Blot In Lane (IOD) (Arginase 20 μg/ml (unit as headed), batch 1, day 8, control 42082): 31436 IOD | HBV-DNA Southern Blot In Lane % Suppression [8]: 38.6255% | HBV-DNA Southern Blot Sum % Suppression [8]: 47.9416% | HBV-DNA Southern Blot Sum (IOD) (Arginase 20 μg/ml (unit as headed), batch 2, day 8, control 66143): 34433 IOD | HBV-DNA Southern Blot In Lane (IOD) (Arginase 20 μg/ml (unit as headed), batch 2, day 8, control 76188): 46760 IOD | HBV-DNA Southern Blot Sum IC50 (batch 1, 8 days): 25.42 IU/ml | HBV-DNA Southern Blot In Lane IC50 (batch 1, day 8): 21.45 IU/ml | HBV-DNA Southern Blot Sum IC50 (batch 2, 8 days): 14.17 IU/ml | HBV-DNA Southern Blot In Lane IC50 (batch 2, day 8): 18.67 IU/ml | HBV-DNA Southern Blot Sum IC50 (two batches average, 8 days): 19.79±7.95 IU/ml | HBV-DNA Southern Blot In Lane IC50 (two batches average, day 8): 20.06±1.96 IU/ml

Reference: patent publication US20080299638A1 (priority 2004, published 2008)
